Test results from paper PMC4498774.

Biological target: T1, His-BaeR (Acinetobacter baumannii ATCC 17978) (UniProt A0ABX6CJ55)
T1 sequence: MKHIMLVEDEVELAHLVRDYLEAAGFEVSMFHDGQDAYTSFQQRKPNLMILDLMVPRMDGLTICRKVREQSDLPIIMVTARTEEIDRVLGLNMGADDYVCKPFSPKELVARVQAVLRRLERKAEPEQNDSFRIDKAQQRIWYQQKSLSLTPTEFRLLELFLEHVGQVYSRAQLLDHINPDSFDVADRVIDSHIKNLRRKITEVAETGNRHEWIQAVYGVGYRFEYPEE
Test: EMSA

**Q.** Which binding does the source give for “TTTCTGAGCAGCAGCAGCTTGCTGTTTCTCATCGGAGCCTTTGCTACAACCAACAAGCGCGATACTTGTTGCTAATGCGCAAGCAGTAAGGGCTGGTGCCCAAAGCTTAGCCGACATCATTGTTCCACCTCGTTTAGATAAAAT (double strand) [adeI promoter region (144 bp)]” here?
**A.** no binding

**Q.** For “GCCTTCACGTTTTAAATAATTTTCAATAATGTCGCCAATATCGTAGTCATCTTCTACCACAAGAATAACTTTATCTTGGCAATCAAAAGAAAAAGAATGATCAAACATAGAAAATCTGGCTATAGAAAGTGCTTCAACTCATCATACGCTAAATTATCCGTATTTCTCCACACTTACTCCACACTTTAGTGATTATCCCTACACACTCATCAAAAATAATACGAACATCAAAAACTCACTAGG (double strand) [adeA promoter region (243 bp)]”, which binding is on record?
**A.** no binding
